Experimental data: paper PMC6538622 (Scientific Reports, 2019)

Biological target: the molecule itself
Assay: SEC-SAXS; 5-10 mg/ml protein in 10 mM DTT, 10 mM MgCl2, 0.5 M NaCl, 20 mM Tris pH 8; KW403-4F size-exclusion column, B21 beamline (Diamond Light Source); molecular mass from I(0)

B1: Escherichia coli RNase E N-terminal catalytic domain (domain or fragment)
chain: not shown
notes: also called EcRNase E NTD; E. coli RNase E NTD
stoichiometry N: 4
